Experiment [1] deals with T1, Mutant 4 of human SPNS2 (FLAG tag inserted in extracellular loop 11) (human, UniProt Q8IVW8 1-549).
T1 construct: on HEK293 cells; also called extracellular loop 11 mutant
T1 sequence: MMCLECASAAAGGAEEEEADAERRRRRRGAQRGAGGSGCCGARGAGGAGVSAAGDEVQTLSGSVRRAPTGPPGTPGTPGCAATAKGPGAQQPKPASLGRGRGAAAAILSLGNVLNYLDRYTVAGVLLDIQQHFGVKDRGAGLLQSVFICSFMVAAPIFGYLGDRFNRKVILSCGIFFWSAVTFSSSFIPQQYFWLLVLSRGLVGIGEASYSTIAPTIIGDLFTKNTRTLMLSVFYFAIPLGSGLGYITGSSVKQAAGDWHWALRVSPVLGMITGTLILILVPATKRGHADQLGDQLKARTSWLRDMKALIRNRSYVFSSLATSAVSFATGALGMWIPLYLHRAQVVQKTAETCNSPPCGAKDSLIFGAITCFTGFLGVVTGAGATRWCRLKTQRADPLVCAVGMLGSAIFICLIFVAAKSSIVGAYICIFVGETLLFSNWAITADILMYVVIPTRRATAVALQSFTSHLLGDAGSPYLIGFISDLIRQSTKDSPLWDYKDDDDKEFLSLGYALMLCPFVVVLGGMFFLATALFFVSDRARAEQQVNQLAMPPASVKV
Kind of experiment: flow cytometry, FLAG-insertion mutant. How it is done: After the lipofection, the HEK 293 cells cultivated overnight were recovered from the culture dishes, and reacted with a cell staining buffer (BioLegend, 420201) containing an anti-FLAG antibody (Sigma-Aldrich, F1804) and an anti-SPNS2 antibody each in a volume of 20 μg/mL for 30 minutes at room temperature. After washing with a cell staining buffer one time, the anti-FLAG antibody was detected with an anti-mouse IgG-Alexa 647 conjugate antibody, and the anti-SPNS2 antibody was detected with an anti-rat IgG-FITC conjugate antibody with flow cytometer BD LSR Fortessa (Becton Dickinson). The binding ability to each mutant was evaluated with the ratio of the FITC-positive cell rate to the Alexa 647-positive cell rate. In Table 7, symbol (+) indicates a ratio of less than 0.1, symbol (±) indicates a ratio of 0.1 or more and less than 0.5, and symbol (−) indicate a ratio of 0.5 or more.
Background: Flow cytometry measures light scatter and fluorescence of single cells or particles in a stream.

The target of experiment [2] is T2, human SPNS2 (human, UniProt Q8IVW8 1-549).
T2 construct: S1P transporter; in Cell ELISA and S1P assays on Flp-in 293 cells that also express human SphK1; also called Spinster homolog 2; native type
T2 sequence: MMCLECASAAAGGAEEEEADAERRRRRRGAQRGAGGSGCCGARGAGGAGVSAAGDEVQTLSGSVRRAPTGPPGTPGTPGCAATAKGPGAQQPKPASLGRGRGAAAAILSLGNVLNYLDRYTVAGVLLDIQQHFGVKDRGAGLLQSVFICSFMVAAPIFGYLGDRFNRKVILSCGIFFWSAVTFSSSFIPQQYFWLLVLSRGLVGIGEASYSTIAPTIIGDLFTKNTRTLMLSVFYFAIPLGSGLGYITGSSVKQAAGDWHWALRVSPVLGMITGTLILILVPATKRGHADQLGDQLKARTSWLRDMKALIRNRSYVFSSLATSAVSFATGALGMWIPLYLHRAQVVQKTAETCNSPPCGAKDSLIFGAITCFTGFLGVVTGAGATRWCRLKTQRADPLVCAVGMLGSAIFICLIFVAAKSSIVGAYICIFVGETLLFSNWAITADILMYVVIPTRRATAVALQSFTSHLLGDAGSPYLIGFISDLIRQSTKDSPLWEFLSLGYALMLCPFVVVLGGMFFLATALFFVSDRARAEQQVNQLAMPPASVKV
The experiment can be described thus: Cell ELISA. As to the method:
(§1) Human and mouse SPNS2 and human SphK1 double stable expression Flp-in 293 cells were added to a poly D lysine coat 96-well plate (Corning, 356461) in a density of 1×10⁵ cells/well and was cultivated overnight, and then the culture medium was removed. An anti-SPNS2 antibody solution was adjusted into 20 μg/mL using 0.2% FBS/3% BSA/PBS, and 0.2% FBS/3% BSA/PBS (60 μL) was added to the antibody diluted solution (20 μL) to prepare seven-step diluted solutions by four fold serial dilution. Each diluted solution of the anti-SPNS2 antibody was added in a volume of 30 μL/well, and reacted for about one hour at room temperature. The antibody solution was removed, and the residue was washed with PBS containing 0.05% Tween 20 (PBS-T) two times, and fixed for about ten minutes at room temperature using 10% buffered formalin (Mildform (Trade mark) 10NM, Wako). After washing with PBS-T one time, a 5000-fold diluted solution of anti-rat IgG antibody HRP conjugate (Southern Biotech, 3030-05) in 0.2% FBS/3% BSA/PBS was added to each well (30 μL), and reacted for about one hour at room temperature. After washing with PBS-T four times, a substrate (TMB; 3, 3′, 5, 5′-tetramethylbenzidin) was added to each well (100 μL) to initiate the reaction. After 20 minutes, 2N sulfuric acid was added to each well (100 μL), and absorbance at 450 nm and 550 nm was measured. […] Each antibody bound to human SPNS2 and mouse SPNS2.
(In an ELISA, binding on a coated surface is turned into a signal by an enzyme label.)

Experiment [3] has as its target T3, mouse SPNS2 (mouse, UniProt Q91VM4 1-549).
T3 construct: on Flp-in 293 cells that also express human SphK1
T3 sequence: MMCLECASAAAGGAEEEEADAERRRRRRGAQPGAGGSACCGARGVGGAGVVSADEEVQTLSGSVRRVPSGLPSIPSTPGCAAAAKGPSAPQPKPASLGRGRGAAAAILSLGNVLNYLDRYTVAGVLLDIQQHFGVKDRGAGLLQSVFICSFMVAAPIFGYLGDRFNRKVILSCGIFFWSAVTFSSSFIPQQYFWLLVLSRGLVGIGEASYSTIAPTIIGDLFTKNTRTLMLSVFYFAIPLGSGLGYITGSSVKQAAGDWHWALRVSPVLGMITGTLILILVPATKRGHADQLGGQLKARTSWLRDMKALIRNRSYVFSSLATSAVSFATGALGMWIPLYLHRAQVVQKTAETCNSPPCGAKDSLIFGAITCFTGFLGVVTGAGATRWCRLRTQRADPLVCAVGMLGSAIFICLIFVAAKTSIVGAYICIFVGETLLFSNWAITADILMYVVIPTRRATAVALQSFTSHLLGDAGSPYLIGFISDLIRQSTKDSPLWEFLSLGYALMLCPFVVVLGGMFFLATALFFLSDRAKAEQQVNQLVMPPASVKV
The experiment can be described thus: Cell ELISA. As to the method: as §1

In experiment [4] the target is T2, human SPNS2. Kind of experiment: cell-based or functional assay.
The target of experiment [5] is T3, mouse SPNS2. The experiment can be described thus: cell-based or functional assay.

These results are taken from patent US20210147523A1 (TEIJIN PHARMA, published 2021).

B1: 82-1109A (antibody, IgG2b, V domains shown)
VH: QVQLQQSGVELAKPGSSVKISCKASGNTFTSNYITWIKQTPGQGLEYIGYINTGSGKTYYNEKFKGKATLTADKSSSTAFMQLSSLTPDDSAVYFCASLTGVDYFDDWGQGVMVTVSS
VL: DDIVLTQSPALAPSLGQRATISCRASQSVRMSGYNLMHWYQQKPGQQPKLLIYDASKLASGIPARFSGSGSGTDFTLTIDPVQSDDIATYYCQQSKDDPYTFGAGTKLELRR
Consider B1, for which the “FITC+/Alexa 647+ cell rate ratio” value in experiment [1] was below 0.1 ratio. Moreover, the pEC50 with human SPNS2 [2] and with mouse SPNS2 [3] was 7.83 pEC50 (M) throughout.

B2: 50-0704C (antibody, IgG2b, V domains shown)
VH: EVQLVGSGGGLVQPGRSMKLSCEASGFTFSNHYMAWVRQAPTKGLEWVATISTGGGNTYYRDSVKGRFTISRDNARSTLSLQMDSLRSEDTATYYCARQDYSNYMGGFAYWGQGTLVTVSS
VL: QFVLTQPNSVSTNLGSTVKLSCTRSIGNIGNNYVNWYKQYEGRSPTTMIYRDDERPDGVPDRFSGSIDRSSNSALLTINSVQTEDEADYFCQSFSSGIFIFGGGTKLTVL
As to B2, the “FITC+/Alexa 647+ cell rate ratio” value in experiment [1] was at least 0.5 ratio. Besides, the values for the Emax in the experiment with human SPNS2 [2] and with mouse SPNS2 [3] were 1.82 absorbance and 1.9 absorbance, respectively. For the same molecule, the pEC50 with human SPNS2 [2] is 8.15 pEC50 (M); with mouse SPNS2 [3] it was 7.75 pEC50 (M). The “pIC50, S1P transport inhibition (S1PR3 Ca2+ FLIPR bioassay)” value (“pIC50, S1P transport inhibition” below) in the experiment with human SPNS2 [4] is 7.2 pIC50 (M); with mouse SPNS2 [5], 7.6 pIC50 (M).

B3: 18-0211B (antibody, IgG2b, V domains shown)
VH: AVQLVGSGGGLVQPGRSMKLSCEASGFTFSNHYMAWVRQAPTRGLEWVATISTGGGNTYYRDSVKGRFTISRDNTRSTLSLQMDSLRSEDTATYYCTRQDYTNYMGGFAYWGQGTLVTVSS
VL: QFVLTQPNSVSTNLGSTVKLSCTRSIGNIGNNYVNWYKQYEGRSPTTLIYRDDERPDGVPDRFSGSIDRSSNSALLTINSVQTEDGADYFCQSFSSGIFIFGGGTTLTVL
In the case of B3, the “FITC+/Alexa 647+ cell rate ratio” value in experiment [1] is at least 0.5 ratio. The Emax was 1.72 absorbance in the experiment with human SPNS2 [2] and 1.61 absorbance with mouse SPNS2 [3]. Further, the figures for the pEC50 with human SPNS2 [2] and in the experiment with mouse SPNS2 [3] were 8.59 pEC50 (M) and 8.37 pEC50 (M), respectively. The “pIC50, S1P transport inhibition” value was 7.6 pIC50 (M) with human SPNS2 [4] and 7.9 pIC50 (M) in the experiment with mouse SPNS2 [5].

B4: 89-1207D (antibody, IgG2b, V domains shown)
VH: EVQLVGSGGGLVQPGRSMKLSCEASGFTFSNHYMAWVRQAPTKGLEWVATISTGGGNTYYRDSVKGRFTISRDNARSILSLQMDSLRSEDTATYYCARQDYSNYMGGFAYWGQGTLVTVSS
VL: QFVLTQPNSVSTNLGSTVKLSCTRSIGNIGNNYVNWYKQYEGRSPTTMIYRDDERPDGVPDRFSGSIDRSSNSALLTINNVQTEDEADYFCQSFSSGMFIFGGGTKLTVL
Consider B4, for which the “FITC+/Alexa 647+ cell rate ratio” value in experiment [1] was at least 0.5 ratio. For the same molecule, the Emax with human SPNS2 [2] stood at 2.03 absorbance; with mouse SPNS2 [3] it was 1.85 absorbance. The pEC50 was 7.97 pEC50 (M) with human SPNS2 [2] and 7.72 pEC50 (M) with mouse SPNS2 [3]. Also, the figures for the “pIC50, S1P transport inhibition” value with human SPNS2 [4] and with mouse SPNS2 [5] were 7.2 pIC50 (M) and 7.6 pIC50 (M), respectively.

B5: 64-0807A (antibody, IgG2b, V domains shown)
VH: EVQVVESGGGLVQPGRSMKLSCAALGFTFRDYYMAWVRQTPTKGLEWVAAISTGGGNTYYRDSVKGRFTISRDNAKSTLYLQMDSLRSDDTATYYCARNPYGNYFDYWGQGVMVTVSS
VL: QFVLSQPNSVSTNLGSTVKLSCKRSTGNIGSNYVHWYQRHEGRSPTTLIYRDDKRPNGVPDRFSGSIDRSSNSALLTINNVQTEDEADYFCQSYSGGMYLFGGGTKLTVL
Take B5: the “FITC+/Alexa 647+ cell rate ratio” value in experiment [1] is at least 0.5 ratio. The Emax in the experiment with human SPNS2 [2] is 1.83 absorbance; with mouse SPNS2 [3] it was 1.88 absorbance. Besides, the pEC50 with human SPNS2 [2] was 8.07 pEC50 (M); with mouse SPNS2 [3] it was 7.83 pEC50 (M). In addition, the “pIC50, S1P transport inhibition” value is 7.4 pIC50 (M) in the experiment with human SPNS2 [4] and 7.6 pIC50 (M) with mouse SPNS2 [5].

B6: 37-0511F (antibody, IgG2b, V domains shown)
VH: EVHLQQSGAALVRPRASVKLSCKVSGDSISRYYVHFVKQRPGQGLEWIGRIDPEDDTTKYSEKFKNRATLTADASSDTASLILSGLTSDDTATYFCSTLTGLDYWGQGVMVTVSS
VL: DIQMTQSPPVLSTSVGDRVTLRCKPSQNVHSKLDWYQQKHGEAPKLLIYYTHNLQTGIPSRFSGSGSGTDYTLTISSLQPEDVATYYCFQYYSGWTFGGGTKLEMKR
Consider B6, for which the “FITC+/Alexa 647+ cell rate ratio” value in experiment [1] is at least 0.5 ratio. Also, the figures for the Emax with human SPNS2 [2] and in the experiment with mouse SPNS2 [3] were 1.35 absorbance and 1.29 absorbance, respectively. Also, the pEC50 with human SPNS2 [2] was 8.2 pEC50 (M); with mouse SPNS2 [3], 8.01 pEC50 (M). Moreover, the “pIC50, S1P transport inhibition” value is 7.3 pIC50 (M) in the experiment with human SPNS2 [4] and 7.8 pIC50 (M) with mouse SPNS2 [5].

B7: 53-0707E (antibody, IgG2b, V domains shown)
VH: EVQLQQSGAELVRPRTSVKLSCKVSGDSITRYYVHFVKQRPGQGLEWIGRIDPEDDTTKYSEKFKKKATLTADASSNTAYLIFSGLTSEDTATYFCSTLTGLDYWGQGVMVTVSS
VL: DIQMTQSPPVLSTSVGDRVTLRCKASQNVHSKLDWYQQKHGEAPKLLIYYTHNLQTGIPSRFSGSGSGTDYTLTISSLQPEDVATYYCFQYYSGWTFGGGTKLEMKR
For B7, the “FITC+/Alexa 647+ cell rate ratio” value in experiment [1] is at least 0.5 ratio. In addition, the Emax with human SPNS2 [2] came to 1.62 absorbance; with mouse SPNS2 [3] it was 1.43 absorbance. Also, the figures for the pEC50 with human SPNS2 [2] and with mouse SPNS2 [3] were 7.87 pEC50 (M) and 7.82 pEC50 (M), respectively. The entries for the “pIC50, S1P transport inhibition” value in the experiment with human SPNS2 [4] and with mouse SPNS2 [5] were 7.1 pIC50 (M) and 7.6 pIC50 (M), respectively.
